This passage reports decrease in HeLa cell area (collapse) of Control shRNA EphB2-OE cells after 15 min with 1 ug/mL pre-clustered eB2 against Fc results from PMC6697728.

In the assay the target is EphB2-GFP (UniProt P29323).
Sequence of UniProt P29323 (P29323 19-1055): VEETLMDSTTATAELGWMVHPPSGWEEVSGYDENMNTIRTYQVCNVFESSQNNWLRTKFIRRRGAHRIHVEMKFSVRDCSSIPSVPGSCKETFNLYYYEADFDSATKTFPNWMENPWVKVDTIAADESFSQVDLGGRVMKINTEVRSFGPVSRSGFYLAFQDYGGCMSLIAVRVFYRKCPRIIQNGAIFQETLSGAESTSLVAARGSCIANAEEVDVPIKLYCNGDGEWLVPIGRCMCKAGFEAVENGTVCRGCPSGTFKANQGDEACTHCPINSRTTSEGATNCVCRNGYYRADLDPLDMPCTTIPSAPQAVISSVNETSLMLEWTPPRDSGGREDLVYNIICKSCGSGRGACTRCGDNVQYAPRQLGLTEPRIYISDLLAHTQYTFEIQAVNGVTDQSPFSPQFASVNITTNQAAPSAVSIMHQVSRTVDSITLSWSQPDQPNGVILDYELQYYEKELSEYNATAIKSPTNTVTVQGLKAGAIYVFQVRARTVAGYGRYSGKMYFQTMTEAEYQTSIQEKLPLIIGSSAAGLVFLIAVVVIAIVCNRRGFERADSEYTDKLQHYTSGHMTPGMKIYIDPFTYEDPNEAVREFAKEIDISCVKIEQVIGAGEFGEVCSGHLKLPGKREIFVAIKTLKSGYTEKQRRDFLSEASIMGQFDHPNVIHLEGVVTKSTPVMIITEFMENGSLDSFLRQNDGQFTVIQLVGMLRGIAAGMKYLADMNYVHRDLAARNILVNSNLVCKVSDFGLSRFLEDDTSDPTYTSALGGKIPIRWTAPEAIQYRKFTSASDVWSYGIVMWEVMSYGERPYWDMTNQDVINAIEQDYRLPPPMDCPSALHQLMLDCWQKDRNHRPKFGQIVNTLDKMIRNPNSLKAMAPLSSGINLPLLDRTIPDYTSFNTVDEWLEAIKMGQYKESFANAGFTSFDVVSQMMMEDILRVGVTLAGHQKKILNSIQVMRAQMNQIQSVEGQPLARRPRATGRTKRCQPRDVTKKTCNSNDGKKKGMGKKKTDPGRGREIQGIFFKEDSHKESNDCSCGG

On to “ephrin-B2-Fc (from UniProt P52799 28-229) (Fc fusion)”, for which the decrease in HeLa cell area (collapse) of Control shRNA EphB2-OE cells after 15 min with 1 ug/mL pre-clustered eB2 against Fc amounted to 50%.
